Data taken from the nanobody polyreactivity screen of Harvey et al. (2022).

experiment: yeast display, Sf9 membrane polyspecificity reagent, FACS + sequencing; frameworks hold sequencing errors
How it was run: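 Sorting gates, low and high (top ~1%), were placed on anti-HA fluorescence to track expression and on streptavidin fluorescence to track reagent binding. A clone's polyreactivity label is taken from the gate it came out of. The reagent was 10% biotinylated, detergent-solubilized Sf9 membrane, applied for 1 hour at 4 °C to galactose-induced yeast display cells.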

Question: Which “polyreactivity (PSR sort gate)” value does the source give for “QVQLVESGGGLVQAGGSLRLSCAASGSIFGRYVKGWYRQAPGKERELVATISSGGSTYYADSVKGRFTISRDNAKNTVYFQMISLKPEDTAVYYCAASYSRFVDWIGDPGYDYWGQGTQVTVSS” here?
Answer: low polyreactivity

Question: For “QVQLVESGGGLVQAGGSLRLSCAASGSIFGRYVKGWYRQAPGKERELVATISSGGSTYYADSVKGRFTISRDNAKNTVYLQMNSLKPEDTAVYYCAASYSRFVDWIGDPGYDYWGQGTQVTVSS”, which “polyreactivity (PSR sort gate)” value is on record?
Answer: low polyreactivity

Question: With “QVQLVESGGGLVQAGGSLRLSCAASGSIFGRYVMGWYRQAPGKEREFVAAITYSGSSTYYADSVKGRFTISRDNAKNTVYLQMNSLKPEDTAVYYCNTYPRSFYWMGYWGQGTQVTVSS” as the sequence, how does the “polyreactivity (PSR sort gate)” value read?
Answer: high polyreactivity

Question: Which “polyreactivity (PSR sort gate)” value does the source give for “QVQLVESGGGLVQAGGSLRLSCAASGSIFGSYAKGCYIQAPGKERELVAAITRAGSTNYADSVKGRFTISRDNGKNTVYLQMNSLKPEDTAVYYCNATGKSTYVLSPVPGAYDYWGQGTQVTVSS” here?
Answer: low polyreactivity

Question: Which “polyreactivity (PSR sort gate)” value does the source give for “QVQLVESGGGLVQAGGSLRLSCAASGSIFGSYAMGWYRQAPGKEMELVAAISGSGGRTYYADSVKGRFTISRDNAKNTVYLKMNSLKPEDTAVYYCSAAYPRVTYKYGYYWGQGTQVTVSS” here?
Answer: high polyreactivity

Question: With “QVQLVESGGGLVQAGGSLRLSCAASGSIFGSYAMGWYRQAPGKERALVAAMSRSGITYYADSVKGRFTISRDNAKNTVYLQMNSLKPEDTAVYYCNADVSWWGYHYDYWGQGTQVTVLS” as the sequence, how does the “polyreactivity (PSR sort gate)” value read?
Answer: high polyreactivity

Question: For “QVQLVESGGGLVQAGGSLRLSCAASGSIFGSYAMGWYRQAPGKERELVAAIRWRGGSTYYADSVKGRFTISRDNAKNTVYLQMNSLKPEDTAVYYCNAVTHYPVWVSGVGYDYWGQGTQVTVSS”, which “polyreactivity (PSR sort gate)” value is on record?
Answer: high polyreactivity

Question: Which “polyreactivity (PSR sort gate)” value does the source give for “QVQLVESGGGLVQAGGSLRLSCAASGSIFGSYAMGWYRQAPGKERELVAAISYRGGRTYYADSVKGRFTISRDNAKNSVYLQMNSLKPEDTAVYYCNARARNSPPYDYWGQGTQVTVSS” here?
Answer: high polyreactivity

Question: With “QVQLVESGGGLVQAGGSLRLSCAASGSIFGSYAMGWYRQAPGKERELVAAITSGGSTHYADSVKGRFTISRDNAKNTVYLQMNSLKPEDTAVYYCNAQALRLFWRYDYWGLGTQVTVSS” as the sequence, how does the “polyreactivity (PSR sort gate)” value read?
Answer: low polyreactivity

Question: For “QVQLVESGGGLVQAGGSLRLSCAASGSIFGSYTMGWYRQAPGKERELVAAISLGGGSTYYADSVKGRFTISRDNAKNTVYLQMNSLKPEDTAVYYCAAVQIVSGTYDYYWGQGTQVTVSS”, which “polyreactivity (PSR sort gate)” value is on record?
Answer: low polyreactivity

Question: For “QVQLVESGGGLVQAGGSLRLSCAASGSIFGSYVMGWYRQAPGKERELVAAISKSGGRTYYADSVKGRFTISRDNAKNTVYLQMKSLKPEDTAVYYCAVLPRVKDGTGGDYWGHGTQVTVSS”, which “polyreactivity (PSR sort gate)” value is on record?
Answer: high polyreactivity

Question: With “QVQLVESGGGLVQAGGSLRLSCAASGSIFGTNAMGGYRQAPGKETELVADISGSGGTTYYADSVKGRFTISRDNAKNTVDLQMNSLKPEDTAVYYCAAKGRAGYGYTAYANDYGGQGTQVTVSS” as the sequence, how does the “polyreactivity (PSR sort gate)” value read?
Answer: low polyreactivity

Question: Which “polyreactivity (PSR sort gate)” value does the source give for “QVQLVESGGGLVQAGGSLRLSCAASGSIFGTNAMGWYRPAPGKERELVAAINWSGGTTYYADSVKGRFTISRDNAKNTVYLQMNSLKPEDTAVYYCNADIEKSYNYWGQGTQVTVSS” here?
Answer: low polyreactivity

Question: For “QVQLVESGGGLVQAGGSLRLSCAASGSIFGTNAMGWYRQAPGKERELVAAISLSTGSTYYADSVKGRFTISRDNAKNNVYLQMNSLKPEYTAVYYCAAYYVTPIYYYWGQGSQVTVSS”, which “polyreactivity (PSR sort gate)” value is on record?
Answer: low polyreactivity

Question: Which “polyreactivity (PSR sort gate)” value does the source give for “QVQLVESGGGLVQAGGSLRLSCAASGSIFGTNAMGWYRQAPGKERELVAVISDGGSTYYADSVKGRFTISRDNAKNTVYLQMNSLKPEDTAVYYCNTPLESPFYSRFGTTESDHWGQGTQVTVSS” here?
Answer: low polyreactivity

Question: Which “polyreactivity (PSR sort gate)” value does the source give for “QVQLVESGGGLVQAGGSLRLSCAASGSIFGTNTMGWYRQAPGKEREFVAVITGSTTSTYYADSVKWRFTISRDNANNTVYLQMNSLIPEDTAVYYCADEPGSRSYGGDYWGQGTQVTVSS” here?
Answer: high polyreactivity

Question: For “QVQLVESGGGLVQAGGSLRLSCAASGSIFGTNTMGWYRQAPGKERELVAAIRLSDSSTYYADSVKGRFTISRDNAKNSFYLQMNSLKPVDTAVYYCAVDYRAYHYYRYDYWGQGTQVTVSS”, which “polyreactivity (PSR sort gate)” value is on record?
Answer: low polyreactivity

Question: Which “polyreactivity (PSR sort gate)” value does the source give for “QVQLVESGGGLVQAGGSLRLSCAASGSIFGTYAMGWYRQAPGKEREFVAAISWSDGSTYYADSVKGRFTISRDNAKNTVYLQMNSLNPEDTAVYYCAVRRVGSIYIDRYIYVVADYDYWGQGTQVTVSS” here?
Answer: low polyreactivity

Question: With “QVQLVESGGGLVQAGGSLRLSCAASGSIFGTYAMGWYRQAPGKERELVAAITGNGGRTYYADSVKGRFTISRDNAKNTVYLQMNSLKPEDTAVYYCAKATSRRGFYYWGQGTQVTVSS” as the sequence, how does the “polyreactivity (PSR sort gate)” value read?
Answer: high polyreactivity

Question: With “QVQLVESGGGLVQAGGSLRLSCAASGSIFGTYAMGWYRQAPGNERELVAAITGNGGRTYYADSVKGRFTISRDNAKNTVYLQMNSLKPEDTAVYYCAKATSRRGFYYWGQGTQVTVSS” as the sequence, how does the “polyreactivity (PSR sort gate)” value read?
Answer: high polyreactivity

Question: Which “polyreactivity (PSR sort gate)” value does the source give for “QVQLVESGGGLVQAGGSLRLSCAASGSIFGVNAMGLYRQAPGKERELVASISLSDDRTYYADSVKGRFTISRDNAKNTVYLQMNSLKPEDTAVYYCARRILWYWDVYPSLAEYDYWGQGTQVTVSS” here?
Answer: low polyreactivity

Question: For “QVQLVESGGGLVQAGGSLRLSCAASGSIFGVNAMGWYRQAPGKERELVAAISSGGSTNYADSVKGRFTISRDNAKNTVYLQMNSLKPEDTAVYYCAADTNTRSNYDYWGQGTQVTVSS”, which “polyreactivity (PSR sort gate)” value is on record?
Answer: low polyreactivity

Question: Which “polyreactivity (PSR sort gate)” value does the source give for “QVQLVESGGGLVQAGGSLRLSCAASGSIFGVNTMGWYRQAPGKERELVAAISSGGNTHYADSVKGRFTISRDNAKNTVYLQMNSLKPEDTAVYYCAAAYVGIYYVSRRRWERYYYWGQGTQVTVSS” here?
Answer: high polyreactivity

Question: Which “polyreactivity (PSR sort gate)” value does the source give for “QVQLVESGGGLVQAGGSLRLSCAASGSIFGVYAMGWYRQAPGKEREFVAAITKRGGSTYYADSVKGRFTISRDNAKNTVYLQMNSLKPEDTAVYYCAARYGRYISSRYGSWGQGTQVTVSS” here?
Answer: high polyreactivity

Question: Which “polyreactivity (PSR sort gate)” value does the source give for “QVQLVESGGGLVQAGGSLRLSCAASGSIFGVYAMGWYRQAPGKERELVAAINSGGTTYADSVKGRFTISRDNAKNTVYLQMNSLKPEDTAVYYCNADRWGPEDPYRVRDRFDYWGQGTQVTVSS” here?
Answer: low polyreactivity

Question: For “QVQLVESGGGLVQAGGSLRLSCAASGSIFGVYAMGWYRQAPGTERELVAAISSRGSSTYYADSVKGRFTISRDNAKKTVYLQMLSLKPEDTAVYYCAARPGIRSYPPGYGYWGQGTQGTVSS”, which “polyreactivity (PSR sort gate)” value is on record?
Answer: high polyreactivity

Question: Which “polyreactivity (PSR sort gate)” value does the source give for “QVQLVESGGGLVQAGGSLRLSCAASGSIFGVYTMGWYRQAPGKERELVAAISGSGGSTYYADSVKGRFTISRDNAKNTVYLQMNSLKPEDTAVYYCATRFPKIPPYDSWGQGTQVTVSS” here?
Answer: low polyreactivity

Question: For “QVQLVESGGGLVQAGGSLRLSCAASGSIFGVYVMGWYRQAPGKERELVAAITRGASTNYADSVKGRFTISRDNAKNTVYLQMNSLKPEDTAVYYCAADGWYSAVGVWLEYDYWGQGTQVTVSS”, which “polyreactivity (PSR sort gate)” value is on record?
Answer: low polyreactivity

Question: For “QVQLVESGGGLVQAGGSLRLSCAASGSIFGWNAMGWYRQAPGKERELVAAISSGGSTYYADSVKGRFTISRDNAKNTVYLQMNSMKPEDPAVYYCNAYFQYYDYWGQGTQVTVSS”, which “polyreactivity (PSR sort gate)” value is on record?
Answer: low polyreactivity

Question: With “QVQLVESGGGLVQAGGSLRLSCAASGSIFGWYAMGWYRQAPGKERELVAAIDSATSTDYADSVKGRFTISRDNAKNTVYLQMNSLKPEDTAFYYCAVYSCWIDAEYDYWGQGTQVTGSS” as the sequence, how does the “polyreactivity (PSR sort gate)” value read?
Answer: low polyreactivity

Question: For “QVQLVESGGGLVQAGGSLRLSCAASGSIFGWYVMGWYIQAPGKERELVAAISSVGSTYYADSVKGRFTISRDNAKNTVYLQMKSLKPEDTAVYYCAKLRYPYLFWDDSEYWGQGTQVTVSS”, which “polyreactivity (PSR sort gate)” value is on record?
Answer: low polyreactivity

Question: With “QVQLVESGGGLVQAGGSLRLSCAASGSIFGWYVMGWYRQAPGKERELVAAISSVGSTYYADSVKGRFTISRDNAKNTVYLQMNSLKPEDTAVYYCAKLRYPYLFWDDSEYWGQGTQVTVSS” as the sequence, how does the “polyreactivity (PSR sort gate)” value read?
Answer: low polyreactivity

Question: For “QVQLVESGGGLVQAGGSLRLSCAASGSIFGYNAMGWSRQAPGKERELVAGITSGTSTYYADSVKGRFTISRDNAKYTVYLQMNSLKPEDTEVYYCARTSYRFYRKRYYWGQGTQVTVSS”, which “polyreactivity (PSR sort gate)” value is on record?
Answer: high polyreactivity

Question: With “QVQLVESGGGLVQAGGSLRLSCAASGSIFGYNAMGWYRQAPGIERELVAAISSGGNTYYADSVKGRFTISRDNAKNTVYLQMNSLKPEDTAVYYCAVDYYYGFDWGQGTQVTVSS” as the sequence, how does the “polyreactivity (PSR sort gate)” value read?
Answer: low polyreactivity

Question: Which “polyreactivity (PSR sort gate)” value does the source give for “QVQLVESGGGLVQAGGSLRLSCAASGSIFGYNAMGWYRQAPGKDREFVAAIRWSSGSTYYADSVKGRFTISRDNAKNTVYLQMNSLKPEDTAVYYCATRQTYLYWGQGTQVTVSS” here?
Answer: high polyreactivity

Question: Which “polyreactivity (PSR sort gate)” value does the source give for “QVQLVESGGGLVQAGGSLRLSCAASGSIFGYNAMVWYRQAPGKESELVAAIRYSGGRTYYADSVKGRFTISRDNAKNSVYLQMNSLKPEDTAVYYCAAPIKFYRYGYTRYDYWGQCTQVTVSS” here?
Answer: high polyreactivity

Question: Which “polyreactivity (PSR sort gate)” value does the source give for “QVQLVESGGGLVQAGGSLRLSCAASGSIFGYNDMGWYRQAPGKERELVAAIDWSDDITYYADSVKGRFTISRDNAKNTVYLQMNSLKPEDTAVYYCATKIRLALYFGYVSEYDYWGQGTQVTVSS” here?
Answer: high polyreactivity

Question: For “QVQLVESGGGLVQAGGSLRLSCAASGSIFGYNPMGWYIQAPGKERELVAAISRSGGRTYYADSVKGRFTISRDNAKNTVYLQMNSLKPEDTAVYDCAAPVWRYYRGKTFDYWGQGTQVTVSS”, which “polyreactivity (PSR sort gate)” value is on record?
Answer: high polyreactivity

Question: For “QVQLVESGGGLVQAGGSLRLSCAASGSIFGYNTMGRYRQAPGKERELVAAISYRGGSTYADSVKGRFTISRDNAKNTVYLQMNSLKPEDTAVYYCAKRSIVGYRYSGYDYWGQGTQVTVSS”, which “polyreactivity (PSR sort gate)” value is on record?
Answer: high polyreactivity

Question: With “QVQLVESGGGLVQAGGSLRLSCAASGSIFGYNTMGWSRQAPGKERELVASISYSGGSTYYADSVKGRFTISRDNAKNTVYLQMNSLKPEDTAVYYCNTGSRYRPNRRYGYWGQGTQVTVSS” as the sequence, how does the “polyreactivity (PSR sort gate)” value read?
Answer: high polyreactivity

Question: With “QVQLVESGGGLVQAGGSLRLSCAASGSIFGYNVMGWYRQAPGKERELVAGITSGGSTNYADSVKGRFTISRDNAKNTVYVQMNSLKPEDTAVYYCNAEGVFGDGRSGFYWYDYWGQGTQVTVSS” as the sequence, how does the “polyreactivity (PSR sort gate)” value read?
Answer: low polyreactivity

Question: With “QVQLVESGGGLVQAGGSLRLSCAASGSIFGYYALGWYRQAPGKERELVAAITSVGSTYYADSVKGRFTISRDNAKKTVSLQMNSLKPEDTAVYYCATRFWFRSLRSSYYYWGQGTQVTVSS” as the sequence, how does the “polyreactivity (PSR sort gate)” value read?
Answer: high polyreactivity

Question: With “QVQLVESGGGLVQAGGSLRLSCAASGSIFGYYAMGWSRQAPGKERELVAAISKSGGRTYYADSVKGRFTISRDNAKNTVYLQMNSLKPEDTAVYYCAAVLWYDIYYGGDYWGQGTQVTVSS” as the sequence, how does the “polyreactivity (PSR sort gate)” value read?
Answer: high polyreactivity
